The record followed here is article PMC2094074 (Nucleic Acids Research, 2007).

B1: His-tagged hHus1 expressed in E. coli (natural protein, human, UniProt O60921 1-280, looked up)
chain: MKFRAKIVDGACLNHFTRISNMIAKLAKTCTLRISPDKLNFILCDKLANGGVSMWCELEQENFFNEFQMEGVSAENNEIYLELTSENLSRALKTAQNARALKIKLTNKHFPCLTVSVELLSMSSSSRIVTHDIPIKVIPRKLWKDLQEPVVPDPDVSIYLPVLKTMKSVVEKMKNISNHLVIEANLDGELNLKIETELVCVTTHFKDLGNPPLASESTHEDRNVEHMAEVHIDIRKLLQFLAGQQVNPTKALCNIVNNKMVHFDLLHEDVSLQYFIPALS
B2: GST-hHus1 (natural protein, human, UniProt O60921 1-280, looked up)
chain: B1 chain
B3: GST-hTDG-N(1-124) (domain or fragment, human, UniProt Q13569 1-124, looked up)
chain: MEAENAGSYSLQQAQAFYTFPFQQLMAEAPNMAVVNEQQMPEEVPAPAPAQEPVQEAPKGRKRKPRTTEPKQPVEPKKPVESKKSGKSAKSKEKQEKITDTFKVKRKVDRFNGVSEAELLTKTL
B4: His-tagged hTDG-ΔC1(1-308) (domain or fragment, human, UniProt Q13569 1-308, looked up)
chain: MEAENAGSYSLQQAQAFYTFPFQQLMAEAPNMAVVNEQQMPEEVPAPAPAQEPVQEAPKGRKRKPRTTEPKQPVEPKKPVESKKSGKSAKSKEKQEKITDTFKVKRKVDRFNGVSEAELLTKTLPDILTFNLDIVIIGINPGLMAAYKGHHYPGPGNHFWKCLFMSGLSEVQLNHMDDHTLPGKYGIGFTNMVERTTPGSKDLSSKEFREGGRILVQKLQKYQPRIAVFNGKCIYEIFSKEVFGVKVKNLEFGLQPHKIPDTETLCYVMPSSSARCAQFPRAQDKVHYYIKLKDLRDQLKGIERNMDV
B5: His-tagged hTDG(67-308) (domain or fragment, human, UniProt Q13569 67-308, looked up)
chain: TTEPKQPVEPKKPVESKKSGKSAKSKEKQEKITDTFKVKRKVDRFNGVSEAELLTKTLPDILTFNLDIVIIGINPGLMAAYKGHHYPGPGNHFWKCLFMSGLSEVQLNHMDDHTLPGKYGIGFTNMVERTTPGSKDLSSKEFREGGRILVQKLQKYQPRIAVFNGKCIYEIFSKEVFGVKVKNLEFGLQPHKIPDTETLCYVMPSSSARCAQFPRAQDKVHYYIKLKDLRDQLKGIERNMDV
B6: GST-hRad1 (natural protein, human, UniProt O60671 1-282, looked up)
chain: MPLLTQQIQDEDDQYSLVASLDNVRNLSTILKAIHFREHATCFATKNGIKVTVENAKCVQANAFIQAGIFQEFKVQEESVTFRINLTVLLDCLSIFGSSPMPGTLTALRMCYQGYGYPLMLFLEEGGVVTVCKINTQEPEETLDFDFCSTNVINKIILQSEGLREAFSELDMTSEVLQITMSPDKPYFRLSTFGNAGSSHLDYPKDSDLMEAFHCNQTQVNRYKISLLKPSTKALVLSCKVSIRTDNRGFLSLQYMIRNEDGQICFVEYYCCPDEEVPESES
B7: GST-hRad9 (natural protein, human, UniProt Q99638 1-391, looked up)
chain: MKCLVTGGNVKVLGKAVHSLSRIGDELYLEPLEDGLSLRTVNSSRSAYACFLFAPLFFQQYQAATPGQDLLRCKILMKSFLSVFRSLAMLEKTVEKCCISLNGRSSRLVVQLHCKFGVRKTHNLSFQDCESLQAVFDPASCPHMLRAPARVLGEAVLPFSPALAEVTLGIGRGRRVILRSYHEEEADSTAKAMVTEMCLGEEDFQQLQAQEGVAITFCLKEFRGLLSFAESANLNLSIHFDAPGRPAIFTIKDSLLDGHFVLATLSDTDSHSQDLGSPERHQPVPQLQAHSTPHPDDFANDDIDSYMIAMETTIGNEGSRVLPSISLSPGPQPPKSPGPHSEEEDEAEPSTVPGTPPPKKFRSLFFGSILAPVRSPQGPSPVLAEDSEGEG

Holding throughout (assay): pull-down
In one assay the target is GST-hTDG (full length) (human, UniProt Q13569 1-410).
The target in assay [1] is B4.
Assay [2] concerns the target B1.
The assay “GST-hRad9” has as its target B7.
The assay “GST-hRad1” has as its target B6.
Assay [3] concerns the target His-tagged human thymine DNA glycosylase, full length (hTDG-full, residues 1-410) (human, UniProt Q13569 1-410).

B1: the binding result with GST-hTDG (full length) is on record as “binds”.

For B2, the binding result in assay [1] is “binds”.

On to B3, for which, in assay [2], the binding result is reported as “binds”.

As for B4, in the assay with GST-hRad9, the binding result is listed as “binds”.

With B5, the binding result with GST-hRad1 and with GST-hRad9 was “binds” throughout.

With B6, the binding result in assay [3] and in assay [1] was “binds” throughout.

Take B7: the binding result in assay [3] is “binds”.
